In assay [1] the target is T1, Biotinylated NOTCH3 657-848 (human, UniProt Q9UM47 657-848, biotinylated (site not stated)).
T1 construct: also called human NOTCH3 (Octet analysis)
T1 sequence: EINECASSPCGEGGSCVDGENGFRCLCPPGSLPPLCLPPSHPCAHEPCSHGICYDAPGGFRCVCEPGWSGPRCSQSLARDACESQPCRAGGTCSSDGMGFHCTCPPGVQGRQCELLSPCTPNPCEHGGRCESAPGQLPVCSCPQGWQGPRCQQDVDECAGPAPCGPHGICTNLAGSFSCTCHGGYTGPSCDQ
The assay can be described thus: Octet RED (BLI), biotinylated NOTCH3 657-848 on streptavidin tips, 5E1 at 333 nM to 3.3 nM; human NOTCH3 (657-848), Octet. The protocol: FIGS. 1A-1B show 5E1 binding to human NOTCH3 using OCTET analysis. (A) Kinetic analysis was performed using the Octet RED technology from ForteBio according to the manufactures instruction. Biotinylated NOTCH3 657-848 was immobilized on streptavidin tips at a level of approximately 3 RU each. (B) Subsequent association and dissociation of 5E1 antibody was analyzed at concentrations in the range from 333 nM to 3.3 nM. Data analysis was subsequently done using the ForteBio Data Analysis 7.0 software (Example 3).
Kinetic analysis was performed using the Octet RED technology from ForteBio according to the manufactures instruction. Biotinylated NOTCH3 657-848 was immobilized on streptavidin tips at a level of approximately 3 RU each. Subsequent association and dissociation of 5E1 antibody was analyzed at concentrations in the range from 333 nM to 3,3 nM. Data analysis was subsequently done using the ForteBio Data Analysis 7.0 software (FIG. 1).

The target in assay [2] is vascular Notch3ECD deposits of TgPAC-Notch3R169C mice. The assay can be described thus: in vivo target engagement, co-immunolabelling with Alexa 488-conjugated 5E1 for total Notch3ECD deposits, 2 months old TgPAC-Notch3R169C mice.

One may read the Kd as the concentration at which binding is half-saturated. A lower Kd goes with tighter binding.

B1: 5E1 monoclonal antibody (isotype IgG1) (antibody, V domains shown)
VH: EIQLQQSGTVLARPGASVKMSCKASGYTFTSYWMHWVKQRPGQGLEWIGAIYPGNGDTSYNRKFNGKAKLTAVTSTSTAYMEFSSLTNEDSAVYFCTRDYGSSYDYVMDYWGQGTSVTVSS
VL: DIQMTQSPSSLSASLGERVSLTCRASQDIGSSLNWLQQEPDGTIKRLIYATSSLDSGVPKRFSGSRSGSDYSLTISRLESEDFVDYYCLQYISSPLTFGAGTKLELK
notes: Murine monoclonal IgG1 from a hybridoma; also called 5E1 antibody; 5E1 anti-Notch3
In assay [1], B1 yielded a dissociation constant Kd of 55 nM. This molecule also registered a percentage of target engagement in assay [2] of 100%.

For the origin of these results see patent US20200048342A1 (INSERM, published 2020).
